Measurements published in publication PMC10331486, “Characterization of an evolutionarily distinct bacterial ceramide kinase from Caulobacter crescentus” (The Journal of Biological Chemistry, 2023).

Legend:
[1] = target: T1, CpgB (CCNA_01218), bacterial ceramide kinase (Caulobacter vibrioides, UniProt A0A0H3C600); assay: NBD-ceramide kinase assay, TLC fluorescence imaging; assay type: biochemical; details: read-out: % inhibition at 300 nM
T1 construct: full-length gene, N-terminal His tag (pET28a NdeI/EcoRI), expressed in E. coli BL21(DE3), HisTrap purified, soluble; tag removal not mentioned
T1 sequence (A0A0H3C600 1-330): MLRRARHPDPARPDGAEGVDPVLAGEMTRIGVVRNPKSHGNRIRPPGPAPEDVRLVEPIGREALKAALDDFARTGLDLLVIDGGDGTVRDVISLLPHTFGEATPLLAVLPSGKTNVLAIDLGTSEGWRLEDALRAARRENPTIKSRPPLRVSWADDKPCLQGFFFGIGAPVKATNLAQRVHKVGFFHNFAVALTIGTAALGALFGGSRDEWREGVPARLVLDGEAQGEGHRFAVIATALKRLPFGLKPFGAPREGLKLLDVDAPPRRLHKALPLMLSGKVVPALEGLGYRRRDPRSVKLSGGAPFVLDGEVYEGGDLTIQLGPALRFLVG

[2] = substrate: Nc1ncnc2c1ncn2[C@@H]1O[C@H](COP(=O)(O)OP(=O)(O)OP(=O)(O)O)[C@@H](O)[C@H]1O; assay: purified protein; details: 160 μM NBD-C6-ceramide fixed, 15 mM Mg2+, 20 mM Hepes pH 7.4, 30 °C
[3] = substrate: CCCCCCCCCCCCC/C=C/[C@@H](O)[C@H](CO)NC(=O)CCCCCNc1ccc([N+](=O)[O-])c2nonc12; assay: NBD-ceramide kinase assay, TLC fluorescence imaging; assay type: biochemical, Caulobacter vibrioides; details: 1 mM ATP fixed, 15 mM Mg2+, 20 mM Hepes pH 7.4, 30 °C, labelled compound (fluorescent NBD)

Molecule: O=C(Nc1nc2ccc(NC(=O)C34CC5CC(CC(C5)C3)C4)cc2s1)c1ccccc1 [NVP-231]
- inhibition at 0.3 µM [1]: 20 to 25%

B1: CpgB (CCNA_01218), bacterial ceramide kinase (Caulobacter vibrioides NA1000) (protein)
chain: MLRRARHPDPARPDGAEGVDPVLAGEMTRIGVVRNPKSHGNRIRPPGPAPEDVRLVEPIGREALKAALDDFARTGLDLLVIDGGDGTVRDVISLLPHTFGEATPLLAVLPSGKTNVLAIDLGTSEGWRLEDALRAARRENPTIKSRPPLRVSWADDKPCLQGFFFGIGAPVKATNLAQRVHKVGFFHNFAVALTIGTAALGALFGGSRDEWREGVPARLVLDGEAQGEGHRFAVIATALKRLPFGLKPFGAPREGLKLLDVDAPPRRLHKALPLMLSGKVVPALEGLGYRRRDPRSVKLSGGAPFVLDGEVYEGGDLTIQLGPALRFLVG
notes: full-length gene, N-terminal His tag (pET28a NdeI/EcoRI), expressed in E. coli BL21(DE3), HisTrap purified, soluble; tag removal not mentioned
- Km [2]: 290 ± 70 µM
- Km [3]: 19.2 ± 5.5 µM
